From the supplement of paper PMC10065799, “High-throughput profiling of sequence recognition by tyrosine kinases and SH2 domains using bacterial peptide display” (eLife, 2023)

Tests used:
SHP2-C SH2 = experiment: SH2 binding enrichment of the phosphorylated peptide, bacterial display (enrichment ratio); higher = better substrate or ligand; peptides without Tyr show the background
c-Src SH2 = experiment: as above
Grb2 SH2 = Grb2 SH2 (UniProt P62993); experiment: as above
c-Abl (mouse) = experiment: phosphorylation enrichment, bacterial display (enrichment ratio); higher = better substrate or ligand; peptides without Tyr show the background
Jak2 = Jak2 (UniProt O60674); experiment: as above
MERTK = MERTK (UniProt Q12866); experiment: as above
Fer (mouse) = experiment: as above
EPHB1 = EPHB1 (UniProt P54762); experiment: as above
Fes = Fes (UniProt P07332); experiment: as above
c-Src = experiment: as above
AncSZ = experiment: as above
FGFR3 = FGFR3 (UniProt P22607); experiment: as above
Hck = Hck (UniProt P08631); experiment: as above
EPHB2 = EPHB2 (UniProt P29323); experiment: as above
FGFR1 = FGFR1 (UniProt P11362); experiment: as above
Fyn = Fyn (UniProt P06241); experiment: as above
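Wherever SH2 binding enrichment of the phosphorylated peptide, bacterial display is given: peptide library displayed on the E. coli surface as eCPX fusions, selected cells deep-sequenced, score is each peptide's frequency after selection divided by its frequency in the input.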
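Wherever phosphorylation enrichment, bacterial display is given: 11-residue human phosphosite peptides and single-mutation variants displayed on the E. coli surface, counted by deep sequencing, each peptide's frequency after selection divided by its frequency in the unselected input library; frequency after pTyr selection over input frequency; kinase dosed for 20-30% of maximal phosphorylation in three min.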

Sequence of Fes (P07332 whole entry, looked up): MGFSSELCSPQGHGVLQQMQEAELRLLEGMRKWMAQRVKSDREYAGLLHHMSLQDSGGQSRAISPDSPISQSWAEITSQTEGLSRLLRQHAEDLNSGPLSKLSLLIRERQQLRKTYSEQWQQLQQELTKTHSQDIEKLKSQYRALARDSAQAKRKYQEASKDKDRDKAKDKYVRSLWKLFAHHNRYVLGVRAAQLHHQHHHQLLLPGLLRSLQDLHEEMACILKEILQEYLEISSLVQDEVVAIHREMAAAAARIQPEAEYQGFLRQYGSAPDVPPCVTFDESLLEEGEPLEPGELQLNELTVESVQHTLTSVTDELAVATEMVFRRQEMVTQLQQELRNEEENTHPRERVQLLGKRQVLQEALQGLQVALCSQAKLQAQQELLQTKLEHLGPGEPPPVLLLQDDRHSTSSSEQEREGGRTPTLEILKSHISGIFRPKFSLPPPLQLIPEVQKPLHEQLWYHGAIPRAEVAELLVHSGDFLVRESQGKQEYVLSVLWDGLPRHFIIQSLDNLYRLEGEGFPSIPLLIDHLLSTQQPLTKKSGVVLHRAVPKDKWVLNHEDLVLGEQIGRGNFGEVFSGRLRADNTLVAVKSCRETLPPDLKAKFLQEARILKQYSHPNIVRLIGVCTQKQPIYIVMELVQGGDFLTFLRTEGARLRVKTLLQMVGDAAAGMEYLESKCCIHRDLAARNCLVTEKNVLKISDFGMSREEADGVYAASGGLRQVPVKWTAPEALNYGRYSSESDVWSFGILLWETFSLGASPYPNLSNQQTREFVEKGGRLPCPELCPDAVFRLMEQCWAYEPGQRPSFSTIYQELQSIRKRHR
Sequence of FGFR1 (P11362 whole entry, looked up): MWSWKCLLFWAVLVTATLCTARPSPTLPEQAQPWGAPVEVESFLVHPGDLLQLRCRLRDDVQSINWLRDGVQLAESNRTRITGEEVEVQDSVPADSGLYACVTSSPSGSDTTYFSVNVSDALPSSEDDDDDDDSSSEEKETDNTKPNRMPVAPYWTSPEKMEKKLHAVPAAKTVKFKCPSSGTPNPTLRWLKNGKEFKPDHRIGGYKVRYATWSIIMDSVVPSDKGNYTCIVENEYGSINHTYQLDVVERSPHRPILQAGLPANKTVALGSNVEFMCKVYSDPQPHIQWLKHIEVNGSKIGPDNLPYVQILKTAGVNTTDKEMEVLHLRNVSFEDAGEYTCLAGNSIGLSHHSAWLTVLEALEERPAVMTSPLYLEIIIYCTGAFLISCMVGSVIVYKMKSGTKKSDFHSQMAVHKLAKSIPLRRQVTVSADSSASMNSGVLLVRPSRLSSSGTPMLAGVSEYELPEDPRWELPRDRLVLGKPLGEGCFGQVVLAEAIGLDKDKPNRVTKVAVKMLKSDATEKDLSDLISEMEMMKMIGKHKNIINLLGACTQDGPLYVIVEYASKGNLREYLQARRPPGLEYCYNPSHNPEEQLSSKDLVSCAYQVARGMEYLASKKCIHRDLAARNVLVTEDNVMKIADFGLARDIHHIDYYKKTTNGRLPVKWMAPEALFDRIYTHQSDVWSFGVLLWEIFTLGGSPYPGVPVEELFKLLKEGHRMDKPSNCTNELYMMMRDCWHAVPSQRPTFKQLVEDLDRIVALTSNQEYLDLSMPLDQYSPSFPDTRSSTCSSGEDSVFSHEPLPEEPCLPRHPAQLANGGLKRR
Sequence of Fyn (P06241 whole entry, looked up, the tested form may be a part): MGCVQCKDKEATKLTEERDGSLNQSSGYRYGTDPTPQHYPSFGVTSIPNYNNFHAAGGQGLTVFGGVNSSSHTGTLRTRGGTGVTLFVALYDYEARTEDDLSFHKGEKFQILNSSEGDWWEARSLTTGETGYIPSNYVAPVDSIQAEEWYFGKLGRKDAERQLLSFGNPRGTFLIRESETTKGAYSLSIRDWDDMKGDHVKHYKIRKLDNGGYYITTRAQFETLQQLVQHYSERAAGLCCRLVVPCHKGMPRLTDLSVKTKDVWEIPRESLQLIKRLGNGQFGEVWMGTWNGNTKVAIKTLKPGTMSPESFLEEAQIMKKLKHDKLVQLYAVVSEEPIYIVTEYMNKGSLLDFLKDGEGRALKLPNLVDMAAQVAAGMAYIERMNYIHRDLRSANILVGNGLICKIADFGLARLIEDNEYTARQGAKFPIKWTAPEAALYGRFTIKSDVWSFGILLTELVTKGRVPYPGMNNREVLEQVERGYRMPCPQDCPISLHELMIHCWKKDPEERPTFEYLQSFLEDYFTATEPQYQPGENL
Sequence of MERTK (Q12866 whole entry, looked up): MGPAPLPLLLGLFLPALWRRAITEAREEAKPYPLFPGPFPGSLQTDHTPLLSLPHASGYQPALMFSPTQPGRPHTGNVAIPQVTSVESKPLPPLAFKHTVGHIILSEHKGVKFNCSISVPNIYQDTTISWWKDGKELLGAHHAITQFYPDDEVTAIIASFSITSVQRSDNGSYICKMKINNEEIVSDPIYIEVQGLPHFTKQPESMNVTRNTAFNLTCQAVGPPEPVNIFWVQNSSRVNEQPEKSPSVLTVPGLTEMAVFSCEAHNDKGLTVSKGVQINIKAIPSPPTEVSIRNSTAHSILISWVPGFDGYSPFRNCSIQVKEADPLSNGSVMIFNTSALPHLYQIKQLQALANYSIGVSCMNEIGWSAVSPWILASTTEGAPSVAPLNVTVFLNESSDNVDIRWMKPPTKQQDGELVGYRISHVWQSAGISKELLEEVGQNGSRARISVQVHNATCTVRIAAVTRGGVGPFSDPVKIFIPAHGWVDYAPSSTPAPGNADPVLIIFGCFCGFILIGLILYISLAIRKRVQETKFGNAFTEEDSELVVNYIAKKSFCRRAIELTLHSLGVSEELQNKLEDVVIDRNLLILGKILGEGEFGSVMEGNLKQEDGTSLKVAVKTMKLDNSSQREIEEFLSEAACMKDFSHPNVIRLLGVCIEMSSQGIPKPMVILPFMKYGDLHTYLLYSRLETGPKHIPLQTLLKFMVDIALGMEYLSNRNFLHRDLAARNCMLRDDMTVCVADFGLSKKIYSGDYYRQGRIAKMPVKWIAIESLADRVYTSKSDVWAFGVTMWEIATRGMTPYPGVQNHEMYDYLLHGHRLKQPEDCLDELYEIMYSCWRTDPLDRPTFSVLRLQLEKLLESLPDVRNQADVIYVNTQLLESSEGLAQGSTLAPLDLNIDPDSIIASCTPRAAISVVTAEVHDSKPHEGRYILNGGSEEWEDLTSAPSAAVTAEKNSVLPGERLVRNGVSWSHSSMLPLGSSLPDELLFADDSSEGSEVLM
Sequence of Jak2 (O60674 whole entry, looked up): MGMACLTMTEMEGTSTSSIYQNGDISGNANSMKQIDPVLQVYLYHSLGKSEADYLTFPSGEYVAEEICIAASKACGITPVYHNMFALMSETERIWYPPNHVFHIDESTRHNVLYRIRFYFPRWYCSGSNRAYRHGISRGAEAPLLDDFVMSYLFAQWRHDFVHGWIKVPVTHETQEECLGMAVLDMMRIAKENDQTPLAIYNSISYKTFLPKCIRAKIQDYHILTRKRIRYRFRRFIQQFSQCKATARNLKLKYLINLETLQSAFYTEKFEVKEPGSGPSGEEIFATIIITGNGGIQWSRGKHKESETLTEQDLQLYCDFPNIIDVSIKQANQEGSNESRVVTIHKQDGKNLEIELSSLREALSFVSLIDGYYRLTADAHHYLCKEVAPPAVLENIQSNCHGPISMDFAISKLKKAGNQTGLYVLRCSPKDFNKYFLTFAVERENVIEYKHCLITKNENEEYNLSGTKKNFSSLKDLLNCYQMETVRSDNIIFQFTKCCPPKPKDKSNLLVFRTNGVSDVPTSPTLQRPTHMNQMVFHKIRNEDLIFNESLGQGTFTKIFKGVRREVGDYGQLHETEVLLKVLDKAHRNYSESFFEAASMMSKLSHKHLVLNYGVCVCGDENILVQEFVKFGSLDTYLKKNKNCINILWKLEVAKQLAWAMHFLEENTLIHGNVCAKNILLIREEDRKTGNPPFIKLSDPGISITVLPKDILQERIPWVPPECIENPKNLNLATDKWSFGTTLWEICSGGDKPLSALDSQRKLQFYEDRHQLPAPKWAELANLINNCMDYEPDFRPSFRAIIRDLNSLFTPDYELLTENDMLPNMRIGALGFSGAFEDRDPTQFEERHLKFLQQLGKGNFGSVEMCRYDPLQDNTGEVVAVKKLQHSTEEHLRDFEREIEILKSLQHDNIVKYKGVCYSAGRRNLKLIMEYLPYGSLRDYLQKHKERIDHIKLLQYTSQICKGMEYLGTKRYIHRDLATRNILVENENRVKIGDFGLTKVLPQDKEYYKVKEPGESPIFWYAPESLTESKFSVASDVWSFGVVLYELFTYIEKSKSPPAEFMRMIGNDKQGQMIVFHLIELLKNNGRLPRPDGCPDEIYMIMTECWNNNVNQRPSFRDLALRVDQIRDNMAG
Sequence of Hck (P08631 whole entry, looked up): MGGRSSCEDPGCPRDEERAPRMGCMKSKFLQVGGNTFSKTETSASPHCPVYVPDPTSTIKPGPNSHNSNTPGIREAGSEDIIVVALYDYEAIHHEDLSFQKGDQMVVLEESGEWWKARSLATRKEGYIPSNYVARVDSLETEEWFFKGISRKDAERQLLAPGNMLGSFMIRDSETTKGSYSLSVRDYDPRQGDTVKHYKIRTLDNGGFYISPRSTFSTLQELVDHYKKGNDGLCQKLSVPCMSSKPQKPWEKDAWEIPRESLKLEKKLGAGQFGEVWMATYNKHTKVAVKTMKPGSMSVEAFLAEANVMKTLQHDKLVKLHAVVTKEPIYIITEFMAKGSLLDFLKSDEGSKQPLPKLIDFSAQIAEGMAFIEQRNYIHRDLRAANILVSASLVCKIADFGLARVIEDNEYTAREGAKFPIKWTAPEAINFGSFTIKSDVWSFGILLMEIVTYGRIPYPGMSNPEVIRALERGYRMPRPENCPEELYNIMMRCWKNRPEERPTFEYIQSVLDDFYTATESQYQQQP

SH2 binding enrichment (SHP2-C SH2) | SH2 binding enrichment (c-Src SH2) | SH2 binding enrichment (Grb2 SH2) | Sequence | phosphorylation enrichment (c-Abl (mouse)) | phosphorylation enrichment (Jak2) | phosphorylation enrichment (MERTK) | phosphorylation enrichment (Fer (mouse)) | phosphorylation enrichment (EPHB1) | phosphorylation enrichment (Fes) | phosphorylation enrichment (c-Src) | phosphorylation enrichment (AncSZ) | phosphorylation enrichment (FGFR3) | phosphorylation enrichment (Hck) | phosphorylation enrichment (EPHB2) | phosphorylation enrichment (FGFR1) | phosphorylation enrichment (Fyn)
0.708 | 0.594 | 0.86 | KFRREYILSLE [GPC3_Y299_W296R_YF] | 0.601 | 0.61 | 0.455 | 0.442 | 0.551 | 0.772 | 0.5 | 0.786 | 0.466 | 0.474 | 0.586 | 0.518 | 0.518
1.24 | 1.17 | 1.2 | KGKLIYLLGDS [NXPE1_Y350] | 0.529 | 0.639 | 0.343 | 0.471 | 0.391 | 0.922 | 0.661 | 0.803 | 0.521 | 0.478 | 0.42 | 0.434 | 0.551
0.847 | 0.519 | 0.844 | KHMADYPDYKY [SOX11_Y113] | 0.404 | 0.442 | 0.322 | 0.42 | 0.458 | 0.616 | 0.4 | 0.642 | 0.632 | 0.401 | 0.471 | 0.453 | 0.407
0.705 | 0.542 | 0.671 | KIEGVYARDET [RPL35A_Y34] | 0.633 | 0.681 | 0.386 | 0.387 | 0.515 | 0.878 | 0.56 | 0.784 | 0.55 | 0.586 | 0.612 | 0.437 | 0.555
0.614 | 0.513 | 0.766 | KILAKYLLETS [NAMPT_Y175] | 0.571 | 0.645 | 0.385 | 0.411 | 0.431 | 0.664 | 0.395 | 0.66 | 0.421 | 0.368 | 0.412 | 0.353 | 0.35
0.873 | 0.691 | 1.03 | KILPEYLSNWT [AIFM1_Y347] | 0.677 | 0.983 | 0.509 | 0.424 | 0.428 | 0.915 | 0.503 | 0.995 | 0.673 | 0.481 | 0.513 | 0.543 | 0.463
2.23 | 1.82 | 1.89 | KKHIPYKEHKS [CSNK1G1_Y205_R206K] | 3.19 | 3.96 | 0.987 | 1.2 | 1.15 | 2.1 | 1.03 | 1.53 | 2.2 | 0.842 | 0.951 | 0.942 | 0.597
0.244 | 0.275 | 0.872 | KKKKQYKDKYL [CASK_Y708] | 0.837 | 0.475 | 0.631 | 0.587 | 0.53 | 0.534 | 0.728 | 0.614 | 0.471 | 0.548 | 0.393 | 0.506 | 0.454
1.36 | 1.12 | 1.14 | KKMKRYHVGKV [HARS2_Y151] | 0.482 | 0.554 | 0.43 | 0.293 | 0.492 | 0.514 | 0.45 | 0.466 | 0.486 | 0.341 | 0.313 | 0.298 | 0.349
1.18 | 0.712 | 1.12 | KLFFHYNPKLC [INSR_Y457] | 0.855 | 1.47 | 0.383 | 0.566 | 0.631 | 1.41 | 0.428 | 1.25 | 0.777 | 0.562 | 0.568 | 0.534 | 0.384
0.845 | 0.636 | 1.16 | KLGDVYVNVAF [PGK1_Y161_D164V] | 0.727 | 0.965 | 0.471 | 0.661 | 0.801 | 1.08 | 0.584 | 1.13 | 1.01 | 0.706 | 0.632 | 1.01 | 0.645
0.788 | 0.714 | 1 | KLIMEYLPFGS [JAK2_Y931_YF] | 0.734 | 0.965 | 0.372 | 0.456 | 0.49 | 1.09 | 0.558 | 0.868 | 0.595 | 0.424 | 0.571 | 0.468 | 0.401
0.841 | 1.23 | 0.846 | KLPFLYDDPFS [GPX2_Y127_P126L_YF] | 0.736 | 1.03 | 2.66 | 1.6 | 3.99 | 0.995 | 0.641 | 1.07 | 0.62 | 1.5 | 4.62 | 0.589 | 0.672
0.761 | 3.9 | 1.12 | KLPFPYDDPFS [GPX2_Y127_YF] | 1.16 | 0.9 | 0.525 | 0.772 | 0.587 | 1.11 | 0.831 | 1.05 | 0.755 | 0.663 | 0.773 | 0.63 | 0.545
0.39 | 0.374 | 0.777 | KNKNRSKNILP [PTPN11_Y279_Y279S] | 0.771 | 0.632 | 0.561 | 0.486 | 0.686 | 0.749 | 0.564 | 0.732 | 0.627 | 0.561 | 0.568 | 0.531 | 0.621
0.888 | 0.637 | 1.05 | KNKNRYKNILP [PTPN11_Y279] | 0.877 | 0.984 | 0.799 | 0.703 | 0.601 | 1.03 | 0.941 | 0.78 | 0.889 | 0.851 | 0.665 | 0.598 | 0.644
